Legend:
[1] = biological target: T1, human FcγRIIIA V158 (human, UniProt P08637 17-254); experiment: competition flow cytometry on CHO DG-44 cells expressing human FcγRIIIA V158; competitor 50 nmol/L Alexa Fluor 488 labeled anti-CD70 IgG1
T1 construct: whole, on cells; also called huFcγRIIIA V158; human Fcγ receptor (CD16)

[2] = biological target: T2, murine FcγRIV (murine, UniProt A0A0B4J1G0 21-249); experiment: competition flow cytometry on CHO DG-44 cells expressing murine FcγRIV; competitor 200 nmol/L Alexa Fluor 488 labeled anti-CD70 IgG1
T2 construct: also called muFcγRIV; murine Fcγ receptor (CD16)
T2 sequence: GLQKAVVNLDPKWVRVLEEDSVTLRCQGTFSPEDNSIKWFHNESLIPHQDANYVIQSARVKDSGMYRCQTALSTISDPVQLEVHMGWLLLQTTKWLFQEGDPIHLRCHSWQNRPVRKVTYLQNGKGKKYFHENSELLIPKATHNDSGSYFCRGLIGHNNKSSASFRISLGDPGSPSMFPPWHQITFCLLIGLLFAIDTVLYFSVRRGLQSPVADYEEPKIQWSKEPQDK

T1 sequence (P08637 17-254 F176V): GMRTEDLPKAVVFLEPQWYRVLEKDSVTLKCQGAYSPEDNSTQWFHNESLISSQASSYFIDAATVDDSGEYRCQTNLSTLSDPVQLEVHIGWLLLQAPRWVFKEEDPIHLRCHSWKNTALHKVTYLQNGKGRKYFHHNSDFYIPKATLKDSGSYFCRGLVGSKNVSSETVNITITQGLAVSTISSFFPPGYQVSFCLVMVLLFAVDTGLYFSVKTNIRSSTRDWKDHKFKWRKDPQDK

B1: control h1F6 antibody (humanized IgG1 anti-CD70 monoclonal antibody, from CHO DG44 cells cultured without fucose analog; core fucosylated) (antibody)
chain 1: QVQLVQSGAEVKKPGASVKVSCKASGYTFTNYGMNWVRQAPGQGLKWMGWINTYTGEPTYADAFKGRVTMTRDTSISTAYMELSRLRSDDTAVYYCARDYGDYGMDYWGQGTTVTVSSASTKGPSVFPLAPCSRSTSESTAALGCLVKDYFPEPVTVSWNSGALTSGVHTFPAVLQSSGLYSLSSVVTVPSSNFGTQTYTCNVDHKPSNTKVDKTVERKCCVECPPCPAPPVAGPSVFLFPPKPKDTLMISRTPEVTCVVVDVSHEDPEVQFNWYVDGVEVHNAKTKPREEQFNSTFRVVSVLTVVHQDWLNGKEYKCKVSNKGLPAPIEKTISKTKGQPREPQVYTLPPSREEMTKNQVSLTCLVKGFYPSDIAVEWESNGQPENNYKTTPPMLDSDGSFFLYSKLTVDKSRWQQGNVFSCSVMHEALHNHYTQKSLSLSPGK
chain 2: DIVMTQSPDSLAVSLGERATINCRASKSVSTSGYSFMHWYQQKPGQPPKLLIYLASNLESGVPDRFSGSGSGTDFTLTISSLQAEDVAVYYCQHSREVPWTFGQGTKVEIKRTVAAPSVFIFPPSDEQLKSGTASVVCLLNNFYPREAKVQWKVDNALQSGNSQESVTEQDSKDSTYSLSSTLTLSKADYEKHKVYACEVTHQGLSSPVTKSFNRGEC
For B1, the EC50 [1] was 113 nM and the EC50 [2] was 369 nM.
